Data: IntAct's records for PubMed 19805355

B1: ATP-sensitive inward rectifier potassium channel 11 (Homo sapiens), Q14654 (parent)
chain: MLSRKGIIPEEYVLTRLAEDPAKPRYRARQRRARFVSKKGNCNVAHKNIREQGRFLQDVFTTLVDLKWPHTLLIFTMSFLCSWLLFAMAWWLIAFAHGDLAPSEGTAEPCVTSIHSFSSAFLFSIEVQVTIGFGGRMVTEECPLAILILIVQNIVGLMINAIMLGCIFMKTAQAHRRAETLIFSKHAVIALRHGRLCFMLRVGDLRKSMIISATIHMQVVRKTTSPEGEVVPLHQVDIPMENGVGGNSIFLVAPLIIYHVIDANSPLYDLAPSDLHHHQDLEIIVILEGVVETTGITTQARTSYLADEILWGQRFVPIVAEEDGRYSVDYSKFGNTVKVPTPLCTARQLDEDHSLLEALTLASARGPLRKRSVPMAKAKPKFSISPDSLS

Variants of: B1
Settings: with ank2_human ANK2, Q01484
ank2_human ANK2, Q01484, sequence (Q01484 whole entry): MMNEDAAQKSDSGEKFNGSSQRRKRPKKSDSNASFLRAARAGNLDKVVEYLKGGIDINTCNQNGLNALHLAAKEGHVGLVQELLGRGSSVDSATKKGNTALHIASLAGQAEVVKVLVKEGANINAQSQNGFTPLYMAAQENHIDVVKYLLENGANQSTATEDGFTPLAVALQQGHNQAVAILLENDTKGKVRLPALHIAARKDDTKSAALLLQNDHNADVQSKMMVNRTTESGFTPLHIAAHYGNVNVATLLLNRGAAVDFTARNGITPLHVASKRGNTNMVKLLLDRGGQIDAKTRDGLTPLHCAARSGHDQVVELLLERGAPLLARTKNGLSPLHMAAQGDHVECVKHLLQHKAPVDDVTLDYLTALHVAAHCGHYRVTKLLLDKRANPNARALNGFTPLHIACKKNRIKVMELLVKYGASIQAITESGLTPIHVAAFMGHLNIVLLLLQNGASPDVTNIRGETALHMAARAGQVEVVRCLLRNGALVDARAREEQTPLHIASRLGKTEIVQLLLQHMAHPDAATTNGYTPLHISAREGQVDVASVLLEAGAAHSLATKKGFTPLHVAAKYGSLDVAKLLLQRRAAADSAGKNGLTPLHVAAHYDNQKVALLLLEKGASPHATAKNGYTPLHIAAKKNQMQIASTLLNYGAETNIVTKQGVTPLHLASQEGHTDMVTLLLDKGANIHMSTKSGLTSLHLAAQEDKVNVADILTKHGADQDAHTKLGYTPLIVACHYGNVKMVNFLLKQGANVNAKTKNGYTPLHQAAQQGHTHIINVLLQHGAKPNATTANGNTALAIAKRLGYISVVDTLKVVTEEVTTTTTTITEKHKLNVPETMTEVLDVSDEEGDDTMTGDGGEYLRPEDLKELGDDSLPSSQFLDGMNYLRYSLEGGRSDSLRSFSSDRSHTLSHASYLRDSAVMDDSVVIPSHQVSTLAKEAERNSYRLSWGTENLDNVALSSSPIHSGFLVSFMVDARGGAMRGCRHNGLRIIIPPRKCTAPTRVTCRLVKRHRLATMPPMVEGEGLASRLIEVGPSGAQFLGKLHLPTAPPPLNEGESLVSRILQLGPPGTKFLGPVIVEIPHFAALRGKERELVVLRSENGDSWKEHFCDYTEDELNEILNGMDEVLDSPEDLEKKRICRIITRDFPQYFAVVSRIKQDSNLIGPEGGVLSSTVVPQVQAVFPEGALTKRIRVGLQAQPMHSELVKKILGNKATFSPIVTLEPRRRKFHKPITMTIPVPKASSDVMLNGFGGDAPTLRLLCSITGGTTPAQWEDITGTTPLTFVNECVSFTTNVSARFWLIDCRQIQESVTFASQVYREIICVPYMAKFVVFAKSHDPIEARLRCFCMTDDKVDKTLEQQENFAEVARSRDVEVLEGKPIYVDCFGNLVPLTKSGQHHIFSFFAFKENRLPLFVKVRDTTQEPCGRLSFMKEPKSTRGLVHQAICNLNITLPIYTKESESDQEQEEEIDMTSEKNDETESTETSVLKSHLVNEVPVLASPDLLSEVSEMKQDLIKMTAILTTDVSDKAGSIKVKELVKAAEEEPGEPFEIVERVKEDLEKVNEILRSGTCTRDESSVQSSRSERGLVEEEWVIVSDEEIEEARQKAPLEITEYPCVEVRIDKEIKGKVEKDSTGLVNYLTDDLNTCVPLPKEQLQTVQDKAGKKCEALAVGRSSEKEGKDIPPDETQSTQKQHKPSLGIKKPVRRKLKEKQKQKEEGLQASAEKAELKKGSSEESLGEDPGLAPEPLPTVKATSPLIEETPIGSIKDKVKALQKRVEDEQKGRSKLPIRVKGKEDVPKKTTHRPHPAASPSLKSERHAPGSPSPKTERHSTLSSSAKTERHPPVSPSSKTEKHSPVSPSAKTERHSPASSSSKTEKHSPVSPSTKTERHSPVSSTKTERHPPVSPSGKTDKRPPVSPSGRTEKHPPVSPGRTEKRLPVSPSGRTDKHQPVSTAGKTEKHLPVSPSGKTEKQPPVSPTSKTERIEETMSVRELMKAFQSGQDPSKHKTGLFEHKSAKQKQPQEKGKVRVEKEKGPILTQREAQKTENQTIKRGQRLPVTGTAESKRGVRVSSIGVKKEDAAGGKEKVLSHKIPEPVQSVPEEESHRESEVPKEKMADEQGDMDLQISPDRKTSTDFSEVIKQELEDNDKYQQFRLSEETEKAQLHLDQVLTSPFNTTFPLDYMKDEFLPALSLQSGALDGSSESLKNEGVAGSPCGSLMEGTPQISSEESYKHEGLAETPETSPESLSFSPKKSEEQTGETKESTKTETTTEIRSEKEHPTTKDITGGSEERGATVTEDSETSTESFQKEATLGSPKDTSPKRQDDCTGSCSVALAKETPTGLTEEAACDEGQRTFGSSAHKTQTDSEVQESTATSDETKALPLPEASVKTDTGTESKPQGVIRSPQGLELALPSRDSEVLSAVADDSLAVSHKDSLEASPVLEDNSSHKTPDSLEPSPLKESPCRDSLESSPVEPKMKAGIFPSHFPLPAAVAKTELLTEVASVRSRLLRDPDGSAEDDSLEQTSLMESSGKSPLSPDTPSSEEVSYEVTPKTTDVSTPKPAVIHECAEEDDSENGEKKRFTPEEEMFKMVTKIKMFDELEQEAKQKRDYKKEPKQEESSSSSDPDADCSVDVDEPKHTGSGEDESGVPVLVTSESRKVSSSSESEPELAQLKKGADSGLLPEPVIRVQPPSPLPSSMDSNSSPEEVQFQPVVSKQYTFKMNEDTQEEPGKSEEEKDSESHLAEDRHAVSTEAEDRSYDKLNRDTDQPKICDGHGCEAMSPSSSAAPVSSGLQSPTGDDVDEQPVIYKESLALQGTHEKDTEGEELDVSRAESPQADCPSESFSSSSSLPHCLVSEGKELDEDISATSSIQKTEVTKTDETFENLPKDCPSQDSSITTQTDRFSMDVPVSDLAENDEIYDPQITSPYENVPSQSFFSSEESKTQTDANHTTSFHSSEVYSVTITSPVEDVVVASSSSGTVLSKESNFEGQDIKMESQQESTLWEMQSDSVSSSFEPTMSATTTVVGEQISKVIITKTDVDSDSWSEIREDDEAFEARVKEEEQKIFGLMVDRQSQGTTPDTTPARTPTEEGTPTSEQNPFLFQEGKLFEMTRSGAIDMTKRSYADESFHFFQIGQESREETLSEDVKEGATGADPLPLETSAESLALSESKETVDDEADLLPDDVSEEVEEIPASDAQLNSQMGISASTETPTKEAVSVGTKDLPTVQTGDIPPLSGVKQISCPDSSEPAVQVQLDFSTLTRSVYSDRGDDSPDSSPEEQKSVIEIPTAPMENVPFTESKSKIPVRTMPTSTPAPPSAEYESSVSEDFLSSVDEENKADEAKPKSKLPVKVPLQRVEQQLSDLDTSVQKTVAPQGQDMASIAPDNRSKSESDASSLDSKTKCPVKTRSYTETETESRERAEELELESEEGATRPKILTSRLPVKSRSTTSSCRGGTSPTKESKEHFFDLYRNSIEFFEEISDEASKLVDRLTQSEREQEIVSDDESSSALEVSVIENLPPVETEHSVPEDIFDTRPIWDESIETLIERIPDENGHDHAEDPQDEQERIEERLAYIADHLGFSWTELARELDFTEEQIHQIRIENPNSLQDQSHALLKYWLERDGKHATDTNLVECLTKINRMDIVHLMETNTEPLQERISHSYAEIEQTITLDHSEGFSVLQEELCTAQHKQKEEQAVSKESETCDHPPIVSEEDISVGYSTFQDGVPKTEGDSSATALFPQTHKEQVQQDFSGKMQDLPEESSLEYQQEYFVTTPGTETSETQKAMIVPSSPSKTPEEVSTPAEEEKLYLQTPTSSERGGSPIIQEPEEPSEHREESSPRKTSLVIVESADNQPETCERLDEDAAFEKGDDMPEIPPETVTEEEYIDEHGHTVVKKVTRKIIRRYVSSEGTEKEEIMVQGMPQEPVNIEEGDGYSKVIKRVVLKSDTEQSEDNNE

Variant | effect of a mutation on the interaction
E322K | decreasing interaction

Variants of: B1
Settings: with ank2_human ANK2, Q01484
Remark: another data set of the same source

Variant | effect of a mutation on the interaction
E322K | disrupting interaction
E321K | disrupting interaction
D323K | disrupting interaction
